Measured values published in patent US20190194358A1 (ARIZONA BOARD OF REGENTS A BODY CORPORATE OF THE STATE OF …, published 2019).
Like-named read-outs stand apart in the source and are kept apart here.

What was measured:
[1] = biological target: T1, Tumor Necrosis Factor-alpha (UniProt P01375 77-233); assay: SPR; reference TNF1 lead peptide
T1 construct: Immobilised on pipette tips or SPR chips (amine coupling or biotin capture); also called TNF-α; TNF-alpha
Method: (§1) Point-mutant libraries were prepared in 96-well stock plates From the stock plate, peptides were diluted to 50 μM concentration in Biacore HBS-EP buffer (GE Healthcare, Piscataway, N.J.) containing 1 mg/ml carboxymethyl-dextran (Sigma-Aldrich, St. Louis, Mo.) to reduce non-specific binding to the CM-5 SPR chip surface. TNF-αt was captured on a CM-5 chip surface at different capture levels on spots 1, 2, 4, and 5 across all four flow cells corresponding to a 40-200 RU range of predicted Rₘₐₓ binding responses. Spot 3 contained only immobilized neutravidin and served as a reference spot.
(§2) Purified point-mutant affinities were measured on the Biacore A100 using SPR equilibrium binding response across a series of peptide concentrations on an SPR chip with TNF-α captured as described above.

[2] = biological target: T1, Tumor Necrosis Factor-alpha; assay: SPR (Biacore A100), TNF-α captured, equilibrium response over a concentration series
Method: as §1, §2

[3] = biological target: T1, Tumor Necrosis Factor-alpha; assay: SPR; reference TNF1 lead peptide; remark: listed apart in the source
Method: as §1, §2

[4] = biological target: T1, Tumor Necrosis Factor-alpha; assay: SPR; difference to the TNF1 lead peptide
Method: as §1, §2

[5] = biological target: T1, Tumor Necrosis Factor-alpha; assay: SPR (Biacore A100) point-mutant screen at 50 µM peptide
Method: as §1
Using the prepared 96-well plates and Biacore A100 SPR instrument, four peptides were flowed separately, in parallel, through the four flow cells over all 4 TNF-α spots and the neutravidin reference spot, with a 60 second association phase and 300 second dissociation phase. SPR sensorgrams were recorded for each peptide response with all 4 TNF-α spots and the neutravidin reference spot across the four flow cells on the SPR chip. Surface regeneration was performed after every 12 injections in each flow cell with Biacore Glycine 2.5 regeneration solution (GE Healthcare, Piscataway, N.J.). Point-mutant reference subtracted, peptide molecular weight adjusted, responses at the late binding region of the sensorgram (a few seconds before dissociation) were compared to the response of the TNF1 lead

[6] = biological target: T1, Tumor Necrosis Factor-alpha; assay: SPR (Biacore A100), TNF-α captured, equilibrium response over a concentration series; remark: listed apart in the source
Method: as §1, §2

Gal80 [7] = biological target: T2, Gal80 (UniProt P04387 1-435, limits assumed); assay: SPR, gal80 immobilised on the chip; Kd from on and off rates
T2 construct: Cy3/Cy5 labelled on arrays, immobilised for SPR and ELISA
T2 sequence (looked up): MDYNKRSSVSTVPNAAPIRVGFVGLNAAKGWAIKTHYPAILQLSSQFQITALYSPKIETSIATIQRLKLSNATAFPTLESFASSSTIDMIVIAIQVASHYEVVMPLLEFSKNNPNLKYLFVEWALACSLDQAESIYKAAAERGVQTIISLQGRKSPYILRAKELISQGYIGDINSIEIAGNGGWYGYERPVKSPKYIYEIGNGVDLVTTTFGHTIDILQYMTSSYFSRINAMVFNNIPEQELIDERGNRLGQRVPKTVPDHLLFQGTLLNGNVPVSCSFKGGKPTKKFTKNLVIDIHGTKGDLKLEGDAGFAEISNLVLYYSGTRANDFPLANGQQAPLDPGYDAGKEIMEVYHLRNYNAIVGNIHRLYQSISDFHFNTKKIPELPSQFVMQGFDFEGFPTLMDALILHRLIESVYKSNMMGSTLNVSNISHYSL

transferrin [8] = biological target: T3, transferrin (human, UniProt P02787 20-698); assay: SPR (Biacore T100), transferrin immobilised, steady-state response
T3 construct: also called TRF; pooled human transferrin (Sigma)
From the text: Flow rates and contact times are adjusted as necessary to provide the surface concentration of target desired for the intended application, and may vary by target. In general, for evaluating whether binding occurs, it is preferable to immobilize a relatively large quantity of target, and higher flow rates and/or longer contact times may be used. For determining kinetics, it is preferable to limit the amount of target immobilized so as to minimize rebinding and avidity effects, and lower flow rates and/or contact times may be used.
Because the off rates for these polypeptides were very high, KD values were estimated by measuring steady-state response for at least five concentrations in a two-fold dilution series, each concentration tested in duplicate. For each experiment, response data were processed using a reference surface to correct for bulk refractive index changes and any non-specific binding. Data were also double referenced using responses from blank running buffer injections. […] Analytes were injected for 60 s at a flow rate of 30 μl/min. The antigen surfaces were regenerated with 30 s consecutive pulses of NaOH/NaCl (50 mM NaOH in 1M NaCl) and Glycine (10 mM glycine-HCl, pH 2.5).

transferrin [9] = biological target: T3, transferrin; assay: affinity characterisation of Example 29 (SPR; format for the purified peptides not stated)
transferrin [10] = biological target: T3, transferrin; assay: peptide microarray with organic prewash, Alexa 555 transferrin with Alexa 647 E. coli lysate; rank by the score of Example 2
transferrin [11] = biological target: T3, transferrin; assay: peptide microarray without organic prewash, Alexa 555 transferrin with Alexa 647 E. coli lysate; rank by the score of Example 2
transferrin [12] = biological target: T3, transferrin; assay: SPR (Biacore T100), transferrin immobilised (9758 RU), steady state affinity fit
From the text: Affinity plots were generated for each peptide and fit using a steady state affinity model.

Gal80 [13] = biological target: T2, Gal80; assay: light-directed peptide array, 25 µM labelled GAL80 with 1 mg/mL E. coli lysate; relative to template BP2;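 further: array read-out by fluorescence scanning, library of 10,000 peptides varied at four positions with ten residue choices, each feature present in triplicate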
From the text: The chemically diverse set of 10 amino acids {I,D,W,L,E,G,T,S,K,R} were selected as the amino acids to substitute into the four variable positions for a total of 10,000 unique variant peptides. Three replicates were included in the array to produce a total of 30,000 array features. […] The resulting array was imaged using a commercial fluorescence scanner.

T3 sequence (P02787 20-698 limits assumed): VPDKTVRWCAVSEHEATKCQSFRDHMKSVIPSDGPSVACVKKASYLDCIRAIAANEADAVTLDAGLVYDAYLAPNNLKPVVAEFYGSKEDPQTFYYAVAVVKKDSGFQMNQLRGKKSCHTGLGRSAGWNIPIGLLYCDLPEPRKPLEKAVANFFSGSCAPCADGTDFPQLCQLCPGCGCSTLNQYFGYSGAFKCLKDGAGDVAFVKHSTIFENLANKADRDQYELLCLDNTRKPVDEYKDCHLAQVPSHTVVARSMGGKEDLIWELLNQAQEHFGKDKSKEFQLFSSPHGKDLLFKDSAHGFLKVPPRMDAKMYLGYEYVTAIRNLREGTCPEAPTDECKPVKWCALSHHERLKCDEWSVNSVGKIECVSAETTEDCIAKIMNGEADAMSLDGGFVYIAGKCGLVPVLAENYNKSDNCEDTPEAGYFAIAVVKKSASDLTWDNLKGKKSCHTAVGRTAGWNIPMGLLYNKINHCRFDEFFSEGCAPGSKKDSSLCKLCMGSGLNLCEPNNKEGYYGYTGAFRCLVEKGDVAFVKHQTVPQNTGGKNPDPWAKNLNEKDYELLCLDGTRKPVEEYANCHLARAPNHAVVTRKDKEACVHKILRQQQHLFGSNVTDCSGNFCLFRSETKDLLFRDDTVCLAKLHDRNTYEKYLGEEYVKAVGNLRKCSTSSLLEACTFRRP
T1 sequence (P01375 77-233 limits assumed): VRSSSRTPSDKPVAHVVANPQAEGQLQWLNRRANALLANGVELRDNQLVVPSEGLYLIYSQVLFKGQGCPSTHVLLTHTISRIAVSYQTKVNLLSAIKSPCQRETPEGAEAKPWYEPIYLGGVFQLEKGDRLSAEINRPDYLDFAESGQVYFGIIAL

For FERSYLKMPWSFLQSRQGSC [TNF1 D4S+P5Y+M7K triple mutant], the “Kd Fold-Change Relative to Lead” value [1] was 11 fold, the Kd [2] was 14 µM and the “Observed Binding ΔG” value [2] was -6.63 kcal/mol.

In the case of FERYPLMMPWSFLQSRQGSC [TNF1 D4Y point-mutant], the “Kd Fold-Change Relative to Lead” value [3] is reported as 3.6 fold, the “Component Binding ΔG Contribution” value [4] is reported as -0.74 kcal/mol and the “fold enhancement in SPR binding response relative to TNF1” value [5] is reported as ≥ 15 fold. For the same binder, the “Binding ΔG” value [6] was -5.95 kcal/mol and the Kd [6] was 44 µM.

In the case of FERYPLKMPWSFLQSRQGSC [TNF1 D4Y+M7K double mutant], the “Kd Fold-Change Relative to Lead” value [1] is reported as 9.4 fold, the Kd [2] is reported as 17 µM and the “Observed Binding ΔG” value [2] is reported as -6.54 kcal/mol.

With FERDPLKMPWSFLQSRQGSC [TNF1 M7K point-mutant] the “Kd Fold-Change Relative to Lead” value [3] was 2.8 fold, the “Component Binding ΔG Contribution” value [4] was -0.72 kcal/mol and the “fold enhancement in SPR binding response relative to TNF1” value [5] was ≥ 15 fold. The “Binding ΔG” value [6] was -5.93 kcal/mol and the Kd [6] was 57 µM.

FERDYLMMPWSFLQSRQGSC [TNF1 P5Y point-mutant] was tested, and the “Kd Fold-Change Relative to Lead” value [3] was 2.7 fold, the “Component Binding ΔG Contribution” value [4] was -0.58 kcal/mol and the “fold enhancement in SPR binding response relative to TNF1” value [5] was ≥ 15 fold. The “Binding ΔG” value [6] was -5.79 kcal/mol and the Kd [6] was 58 µM.

With FERDYLKMPWSFLQSRQGSC [TNF1 P5Y+M7K double mutant] the “Kd Fold-Change Relative to Lead” value [1] was 5.8 fold, the Kd [2] was 27 µM and the “Observed Binding ΔG” value [2] was -6.24 kcal/mol.

In the case of FERDYLMMPWKFLQSRQGSC [TNF1 P5Y+S11K double mutant], the “Kd Fold-Change Relative to Lead” value [1] is reported as 6.6 fold, the Kd [2] is reported as 24 µM and the “Observed Binding ΔG” value [2] is reported as -6.63 kcal/mol.

For FERDPLMMPWKFLQSRQGSC [TNF1 S11K point-mutant], the “Kd Fold-Change Relative to Lead” value [3] was 3.9 fold, the “Component Binding ΔG Contribution” value [4] was -0.82 kcal/mol and the “fold enhancement in SPR binding response relative to TNF1” value [5] was ≥ 15 fold. The “Binding ΔG” value [6] was -6.03 kcal/mol and the Kd [6] was 40 µM.

B1: BP1 on dsDNA (peptide)
affinity element BP1: GTEKGTSGWLKTGSC
modifications: C-terminal Cys joined through SMCC to the DNA linker
notes: also called BP1 alone conjugated to the double-stranded DNA linker
Binder B1 has a Kd (Gal80 [7]) of 482 nM.

B2: TRF26 (peptide)
peptide: AHKVVPQRQIRHAYNRYGSC
notes: 20-mer ending GSC; also called TRF26 Lead Peptide
B2 was tested, and the Kd (transferrin [8]) was ~100 µM, the “Binding ΔG” value (transferrin [9]) was -5.56 kcal/mol and the Kd (transferrin [9]) was 85 µM. The Rank -- prewash (transferrin [10]) was 436 rank and the Rank - non-prewash (transferrin [11]) was 596 rank.

B3: TBPL005 (peptide)
peptide: GHKVVPQRQIRHAYNRYGSC
notes: Clone from mRNA display on a doped TRF26 library; synthesised and HPLC purified
In the case of B3, the Kd (transferrin [12]) is reported as 150 µM.

B4: TBPL025 (peptide)
peptide: GHKVVPQRQMRHAYNRNGSC
notes: Clone from mRNA display on a doped TRF26 library
Work on B4 yielded a Kd (transferrin [12]) of 150 µM.

B5: TRF19 (peptide)
peptide: KEDNPGYSSEQDYNKLDGSC
notes: 20-mer ending GSC; on arrays attached by the C-terminal Cys
B5 was tested, and the Kd (transferrin [8]) was ~150 µM, the Rank -- prewash (transferrin [10]) was 9600 rank and the Rank - non-prewash (transferrin [11]) was 5010 rank.

B6: BP2 variant EGEITEGKKSKLGSC (peptide)
peptide: EGEITEGKKSKLGSC
notes: Synthesised in situ on a light-directed array
B6 was tested, and the “Fold Enhancement” value (Gal80 [13]) was 11.1 fold.

B7: BP2 variant EGEDTEGKKSKEGSC (peptide)
peptide: EGEDTEGKKSKEGSC
notes: as for B6
With B7 the “Fold Enhancement” value (Gal80 [13]) was 10.1 fold.

B8: BP2 variant EGEDTEGKKSKGGSC (peptide)
peptide: EGEDTEGKKSKGGSC
notes: as for B6
In the case of B8, the “Fold Enhancement” value (Gal80 [13]) is reported as 10.8 fold.

B9: BP2 variant EGEDTEGKKSKIGSC (peptide)
peptide: EGEDTEGKKSKIGSC
notes: as for B6
For B9, the “Fold Enhancement” value (Gal80 [13]) was 10.4 fold.

B10: BP2 variant EGEDTEGKKSKLGSC (peptide)
peptide: EGEDTEGKKSKLGSC
notes: as for B6
For B10, the “Fold Enhancement” value (Gal80 [13]) was 10.4 fold.

B11: BP2 variant EGEDTEGKKSKRGSC (peptide)
peptide: EGEDTEGKKSKRGSC
notes: as for B6
For B11, the “Fold Enhancement” value (Gal80 [13]) was 10.4 fold.

B12: BP2 variant EGEDTEGKKSKTGSC (peptide)
peptide: EGEDTEGKKSKTGSC
notes: as for B6
In the case of B12, the “Fold Enhancement” value (Gal80 [13]) is reported as 10.2 fold.

B13: BP2 variant EGEITEGKKSKEGSC (peptide)
peptide: EGEITEGKKSKEGSC
notes: as for B6
For B13, the “Fold Enhancement” value (Gal80 [13]) was 10.9 fold.

B14: BP2 variant EGEITEGKKSKGGSC (peptide)
peptide: EGEITEGKKSKGGSC
notes: as for B6
With B14 the “Fold Enhancement” value (Gal80 [13]) was 10.8 fold.

B15: BP2 variant EGEITEGKKSKIGSC (peptide)
peptide: EGEITEGKKSKIGSC
notes: as for B6
In the case of B15, the “Fold Enhancement” value (Gal80 [13]) is reported as 11.3 fold.

B16: BP2 variant EGEITEGKKSKRGSC (peptide)
peptide: EGEITEGKKSKRGSC
notes: as for B6
B16 was tested, and the “Fold Enhancement” value (Gal80 [13]) was 10.5 fold.

B17: BP2 variant EGEITEGKKSKSGSC (peptide)
peptide: EGEITEGKKSKSGSC
notes: as for B6
With B17 the “Fold Enhancement” value (Gal80 [13]) was 9.91 fold.

B18: BP2 variant EGEITEGKKSKTGSC (peptide)
peptide: EGEITEGKKSKTGSC
notes: as for B6
B18 was tested, and the “Fold Enhancement” value (Gal80 [13]) was 10.6 fold.

B19: BP2 variant EGEKTEGKKSKEGSC (peptide)
peptide: EGEKTEGKKSKEGSC
notes: as for B6
In the case of B19, the “Fold Enhancement” value (Gal80 [13]) is reported as 9.7 fold.

B20: BP2 variant EGEKTEGKKSKGGSC (peptide)
peptide: EGEKTEGKKSKGGSC
notes: as for B6
In the case of B20, the “Fold Enhancement” value (Gal80 [13]) is reported as 9.24 fold.

B21: BP2 variant EGEKTEGKKSKLGSC (peptide)
peptide: EGEKTEGKKSKLGSC
notes: as for B6
For B21, the “Fold Enhancement” value (Gal80 [13]) was 9.81 fold.

B22: BP2 variant EGEKTEGKKSKTGSC (peptide)
peptide: EGEKTEGKKSKTGSC
notes: as for B6
B22 was tested, and the “Fold Enhancement” value (Gal80 [13]) was 8.5 fold.

B23: BP2 variant EGEWTEGKKSKEGSC (peptide)
peptide: EGEWTEGKKSKEGSC
notes: as for B6
B23 was tested, and the “Fold Enhancement” value (Gal80 [13]) was 10.7 fold.

B24: BP2 variant EGEWTEGKKSKGGSC (peptide)
peptide: EGEWTEGKKSKGGSC
notes: as for B6
For B24, the “Fold Enhancement” value (Gal80 [13]) was 11.1 fold.

B25: BP2 variant EGEWTEGKKSKIGSC (peptide)
peptide: EGEWTEGKKSKIGSC
notes: as for B6
For B25, the “Fold Enhancement” value (Gal80 [13]) was 10.4 fold.

B26: BP2 variant EGEWTEGKKSKLGSC (peptide)
peptide: EGEWTEGKKSKLGSC
notes: as for B6
B26 was tested, and the “Fold Enhancement” value (Gal80 [13]) was 10.7 fold.

B27: BP2 variant EGEWTEGKKSKRGSC (peptide)
peptide: EGEWTEGKKSKRGSC
notes: as for B6
In the case of B27, the “Fold Enhancement” value (Gal80 [13]) is reported as 11 fold.

B28: BP2 variant EGEWTEGKKSKTGSC (peptide)
peptide: EGEWTEGKKSKTGSC
notes: as for B6
With B28 the “Fold Enhancement” value (Gal80 [13]) was 10.5 fold.

In the case of QYHHFMNLKRQGRAQAYGSC (20-mer ending GSC) [TRF21], the Kd (transferrin [8]) is reported as ~60 µM, the Rank -- prewash (transferrin [10]) is reported as 5 rank and the Rank - non-prewash (transferrin [11]) is reported as 84 rank.

Binder FRGWAHIFFGPHVIYRGGSC (20-mer ending GSC) [TRF23] has a Kd (transferrin [8]) of ~50 µM, a Rank -- prewash (transferrin [10]) of 2090 rank and a Rank - non-prewash (transferrin [11]) of 2720 rank.

B29: BP2 variant EGEITEGKGSKKGSC (peptide)
peptide: EGEITEGKGSKKGSC
notes: as for B6
With B29 the “Fold Enhancement” value (Gal80 [13]) was 9.87 fold.

EGEITEGKLSKKGSC [BP2 variant EGEITEGKLSKKGSC] was tested, and the “Fold Enhancement” value (Gal80 [13]) was 9.72 fold.

Binder SVKPWRPLITGNRWLNSGSC (20-mer ending GSC) [TRF24] has a Kd (transferrin [8]) of ~50 µM, a Rank -- prewash (transferrin [10]) of 958 rank and a Rank - non-prewash (transferrin [11]) of 71 rank.

Work on GQTQFAMHRFQQWYKIKGSC (20-mer ending GSC) [TRF20] yielded a Rank -- prewash (transferrin [10]) of 289 rank and a Rank - non-prewash (transferrin [11]) of 18 rank.

APYAPQQIHYWSTLGFKGSC (20-mer ending GSC) [TRF25] showed a Kd (transferrin [8]) of ~60 µM, a Rank -- prewash (transferrin [10]) of 603 rank and a Rank - non-prewash (transferrin [11]) of 736 rank.

HAYKGPGDMRRFNHSGMGSC (20-mer ending GSC) [TRF22] was tested, and the Rank -- prewash (transferrin [10]) was 61 rank and the Rank - non-prewash (transferrin [11]) was 711 rank.

Work on LDPLFNTSIMVNWHRWMGSC [TRF27] yielded a Rank -- prewash (transferrin [10]) of 3320 rank and a Rank - non-prewash (transferrin [11]) of 1290 rank.

Binder RFQLTQHYAQFWGHYTWGSC (20-mer ending GSC) [TRF28] has a Rank -- prewash (transferrin [10]) of 712 rank and a Rank - non-prewash (transferrin [11]) of 601 rank.
